Reference: patent US20040152869A1 (SCHERING, published 2004)
Ends that are not written are not given here.

T1: 10-mer truncated form of APP28, YEVHH-QKLVF (SEQ ID NO: 8)
T1 chain: YEVHHQKLVF

T2: Ac-Tyr-Glu-Val-Ala-His-Gln-Lys-Leu-Val-Phe-NH2 (SEQ ID NO: 13)
T2 chain: YEVAHQKLVF

T3: proteolytic ADAM33 polypeptide (wild-type ADAM33 catalytic domain with Ser-Gly-His6 Tag, expressed in … (Homo sapiens (Human), UniProt Q9BZ11 204-409))
T3 sequence: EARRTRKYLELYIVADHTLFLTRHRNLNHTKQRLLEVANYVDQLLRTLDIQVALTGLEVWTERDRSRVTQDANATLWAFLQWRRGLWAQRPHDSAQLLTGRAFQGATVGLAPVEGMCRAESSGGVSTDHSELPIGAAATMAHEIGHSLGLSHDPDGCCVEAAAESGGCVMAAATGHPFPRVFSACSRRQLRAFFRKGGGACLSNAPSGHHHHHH


Experiments:
[1] = target: T1, 10-mer truncated form of APP28, …
[2] = target: T2, Ac-Tyr-Glu-Val-Ala-His-Gln-Lys-Leu-Val-P …
[3] = target: T3, proteolytic ADAM33 polypeptide …; assay: cell-based or functional assay

| Binder | Relative Activity [3] | other results |
| --- | --- | --- |
| proteolytic ADAM33 polypeptide (wild-type ADAM33 catalytic domain with Ser-Gly-His6 Tag, expressed in Drosophila S2 cells) (protein) EARRTRKYLELYIVADHTLFLTRHRNLNHTKQRLLEVANYVDQLLRTLDIQVALTGLEVWTERDRSRVTQDANATLWAFLQWRRGLWAQRPHDSAQLLTGRAFQGATVGLAPVEGMCRAESSGGVSTDHSELPIGAAATMAHEIGHSLGLSHDPDGCCVEAAAESGGCVMAAATGHPFPRVFSACSRRQLRAFFRKGGGACLSNAPSGHHHHHH |  | cleavage [1]: identification of a 10-mer peptide substrate of a proteolytic ADAM33 polypeptide; kcat/Km [2]: kcat/Km=10,000 M-1s-1; rate of cleavage relative to the 10-mer truncated form of APP28 (SEQ ID NO: 8) [2]: at a rate seventeen times greater than the 10-mer truncated form of APP28 (SEQ ID NO: 8) |
| Ac-YEVAHQKLVF-NH2 [Ac-Tyr-Glu-Val-Ala-His-Gln-Lys-Leu-Val-Phe-NH2 (SEQ ID NO: 13)] | 1 |  |
| EVAHQKLA-OH [EVAH*QKLA-OH (SEQ ID NO: 37)] | 0.1 |  |
| SGYEVAHQKLAFFA-OH [SGYEVAH*QKLAFFA-OH (SEQ ID NO: 11)] | 1.2 |  |
| YEVAHQKLA-OH [YEVAH*QKLA-OH (SEQ ID NO: 12)] | 0.9 |  |
| YEVAHQKLAF-OH [YEVAH*QKLAF-OH (SEQ ID NO: 7)] | 1.1 |  |
| SGYEVAHQKLA-OH [SGYEVAH*QKLA-OH (SEQ ID NO: 9)] | 0.5 |  |
| Ac-VAHQKL-NH2 [Ac-VAH*QKL-NH2 (SEQ ID NO: 38)] | 0 |  |
